Publication PMC3519889

Experiments:
[1] = tested on: NarP(D57N) (NarP#) (Shewanella oneidensis); experiment: EMSA; settings: no binding up to 2 uM, 100 mM Tris/HCl pH 7.4, 20 mM KCl, 10 mM MgCl2, 2 mM DTT, 10% glycerol, 15 C, 60 min, ~2 nM probe, 2 ug poly(dI·dC), 4.8% native PAGE
[2] = tested on: NarP (SO3982), phosphorylated (Shewanella oneidensis); experiment: EMSA; settings: 100 mM Tris/HCl pH 7.4, 20 mM KCl, 10 mM MgCl2, 2 mM DTT, 10% glycerol, 15 C, 60 min, ~2 nM probe, 2 ug poly(dI·dC); 4.8% native PAGE

nrfA promoter fragment showed a binding ([1]; not phosphorylation-treated) greater than 2 µM, a binding ([1]; treated with NarQ51-585 and ATP) greater than 2 µM and a binding [2] of less than 0.25 µM.
